Values quoted from earlier work as cited in PMC9528458.

Target: Axin DAX (Homo sapiens) (UniProt O15169)
Sequence (O15169 780-862): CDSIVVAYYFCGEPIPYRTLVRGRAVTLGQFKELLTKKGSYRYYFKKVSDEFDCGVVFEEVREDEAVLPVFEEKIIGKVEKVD

Sequence of Dishevelled DIX (O14641 8-96): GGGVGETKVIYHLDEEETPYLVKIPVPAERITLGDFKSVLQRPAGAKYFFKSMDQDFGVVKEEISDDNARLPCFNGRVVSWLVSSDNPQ

In the case of Dishevelled DIX (from UniProt O14641), the Kd is given as 15 µM.
